B1: Max-interacting protein 1, residues 70 to 120; numbered along this chain, P50539 (parent)
chain: STHNELEKNRRAHLRLCLERLKVLIPLGPDCTRHTTLGLLNKAKAHIKKLE

Variants of: B1
Assay: abundance fitness (aPCA) (normalised: wild type 0, dead -1); higher = more abundant; growth selection in yeast, the domain comes from the species named
Settings: Homo sapiens

Abundance fitness, by site and new letter:
H46: N -0.394, P -0.6, G 0.108, D -0.973, V 0.116, S 0.237, W 0.216, A 0.157, R -0.055, F -0.456, I -0.26, E -0.527, K 0.186, T 0.154, Q 0.305
A43: D -0.634, G -0.583, N -0.553, Q -0.74, T -0.339, C -0.133, F -0.182, I -0.2, V -0.046, S -0.652, E -0.58, K -0.939, W -0.303, Y -0.918, P -0.53, H -0.828
K42: F -0.256, S -0.338, A -0.319, Y -0.684, G -0.421, L -0.641, T -0.196, N -0.598, R -0.069, W -0.23, D -0.992, M -0.452, C -0.185, E -0.716, H -0.813, Q -0.44, P -0.808, I -0.284
K49: S -0.278, G -0.458, P -0.638, N -0.594, C -0.62, I -0.81, Y -0.746, F -0.045, Q -0.679, M -0.692, T -0.701, W -0.041, L -0.386, V -0.618, H -1.02, D -1.07
E51: H 0.368, D -0.197, G 0.355, F 0.332, A 0.495, C 0.207
A45: T -0.027, Q 0.085, G -0.447, P -0.631, S -0.262, N -0.023, M -0.276, I 0.043, L -0.097, C -0.25, W -0.483, V -0.045, K -0.057, R -0.167, H -0.168, F -0.346, D -0.617, E -0.136
K48: L -0.802, I -0.351, Q -0.457, V -0.846, C -0.311, D -0.65, M -0.65, N -0.675, W -0.31, P -0.643, S -0.648, F -0.093, G -0.479, T -0.719, H -0.74, R -0.288, Y 0.026, E -0.762
I47: R -0.707, D -0.761, Y -0.137, Q -0.931, V -0.312, F 0.216, G -0.539, M -0.25, P -1.06, S -0.653, E -0.776, C -0.524, T -0.61, L 0.027, N -0.702, K -0.858, A -0.582
N41: F -0.7, R -0.044, Y -0.745, I -0.631, P -0.44, M -0.559, K 0.109, D -0.322, V -0.707, L -0.711, A -0.218, W -0.83, E -0.139, S -0.09, C -0.237, T -0.555
L50: A -0.572, D -0.423, F 0.259, Y -0.351, R -0.459, M -0.446, P -0.353, N -0.617, K -0.342, E -0.636, V -0.616, G -0.317, Q -0.377, W 0.023
L40: V -0.099, Q -0.933, N -0.584, P -0.89, S -0.91, R -0.698, M -0.098, K -0.793, Y -0.617, H -0.86, F 0.033, W 0.323, T -0.68

— the Human Domainome abundance scans (Beltran et al. 2025)
